Holding throughout (assay type): biochemical
Common to all, as to design: key to Activity of mutant relative to wild-type Gaussia luciferase without the signal peptide: ratio of mutant luminescence intensity to wild-type Gaussia luciferase

A short description of experiment [1]: Luminescence activity assay of purified Gaussia luciferase mutants on coelenterazine derivative ZS2. The settings on record: Substrate ZS2 (Table 16). In a few lines:
(§1)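 Readout: luminescence intensity, as ratio to signal-peptide-free wild-type enzyme. Enzyme 1 μg/mL, substrate 100 μM stock, 10 μL + 90 μL; buffer 50 mM Tris-HCl pH 8.0, 100 mM NaCl, 0.1% Tween-20.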

Experiment [2] can be described thus: Luminescence activity assay of purified Gaussia luciferase mutants on coelenterazine. The note with it: Substrate CTZ (Table 16). The gist of the method:
as §1

Experiment [3] can be described thus: Luminescence activity assay of purified Gaussia luciferase mutants on fluoro-coelenterazine. The settings on record: Substrate f-CTZ (Table 16). In a few lines: as §1

Changes are numbered by the printed parent chain. In names and notes the source's numbering stands.

B1: P53L: Gaussia luciferase mutant (protein)
chain: MGVKVLFALICIAVAEAKPTENNEDFNIVAVASNFATTDLDADRGKLPGKKLLLEVLKEMEANARKAGCTRGCLICLSHIKCTPKMKKFIPGRCHTYEGDKESAQGGIGEAIVDIPEIPGFKDLEPMEQFIAQVDLCVDCTTGCLKGLANVQCSDLLKKWLPQRCATFASKIQGQVDKIKGAGGD
modifications: SIGNAL (1)..(17)
notes: Gaussia luciferase mutant
On to B1, for which the “Activity of mutant relative to wild-type Gaussia luciferase without the signal peptide” value in experiment [1] is 0.002; in experiment [2], 0.007; in experiment [3], 0.010.

B2: Q152H S170D G174S K178T A182L: Gaussia luciferase mutant (protein)
chain: B1 chain with L53P, Q152H, S170D, G174S, K178T, A182L
modifications: SIGNAL (1)..(17)
notes: Gaussia luciferase mutant
B2: the “Activity of mutant relative to wild-type Gaussia luciferase without the signal peptide” value in experiment [1] amounted to 2.672; in experiment [2], 4.938; in experiment [3] it was 2.069.

B3: Q152H Q163D S170N G174S Q175E D177S A182Y: Gaussia luciferase mutant (protein)
chain: B1 chain with L53P, Q152H, Q163D, S170N, G174S, Q175E, D177S, A182Y
modifications: SIGNAL (1)..(17)
notes: Gaussia luciferase mutant
In the case of B3, the “Activity of mutant relative to wild-type Gaussia luciferase without the signal peptide” value in experiment [1] was found to be 0.347; in experiment [2], 1.007; in experiment [3], 0.404.

B4: Q152H Q163D T167S S170N G174K A182L G183N: Gaussia luciferase mutant (protein)
chain: B1 chain with L53P, Q152H, Q163D, T167S, S170N, G174K, A182L, G183N
modifications: SIGNAL (1)..(17)
notes: Gaussia luciferase mutant
B4: the figures for the “Activity of mutant relative to wild-type Gaussia luciferase without the signal peptide” value in experiment [1], in experiment [2] and in experiment [3] were 0.159, 0.144 and 0.234, respectively.

B5: Q152H Q163T T167G S170D G174N A182M G183A: Gaussia luciferase mutant (protein)
chain: B1 chain with L53P, Q152H, Q163T, T167G, S170D, G174N, A182M, G183A
modifications: SIGNAL (1)..(17)
notes: Gaussia luciferase mutant
As to B5, the “Activity of mutant relative to wild-type Gaussia luciferase without the signal peptide” value in experiment [1] came out at 0.001; in experiment [2] it was 0.080; in experiment [3] it was 0.478.

B6: Q152R Q163S T167G S170T G174K K178S A182M G183A: Gaussia luciferase mutant (protein)
chain: B1 chain with L53P, Q152R, Q163S, T167G, S170T, G174K, K178S, A182M, G183A
modifications: SIGNAL (1)..(17)
notes: Gaussia luciferase mutant
Turning to B6, the results for the “Activity of mutant relative to wild-type Gaussia luciferase without the signal peptide” value in experiment [1], in experiment [2] and in experiment [3] were 2.367, 1.171 and 1.864, respectively.

B7: Q152H Q163D T167G S170V G174K Q175E K178N: Gaussia luciferase mutant (protein)
chain: B1 chain with L53P, Q152H, Q163D, T167G, S170V, G174K, Q175E, K178N
modifications: SIGNAL (1)..(17)
notes: Gaussia luciferase mutant
For B7, the “Activity of mutant relative to wild-type Gaussia luciferase without the signal peptide” value is given as 0.862 in experiment [1], 1.749 in experiment [2] and 0.215 in experiment [3].

B8: P84A E102A S103I D123L V138D: Gaussia luciferase mutant (protein)
chain: B1 chain with L53P, P84A, E102A, S103I, D123L, V138D
modifications: SIGNAL (1)..(17)
notes: Gaussia luciferase mutant
In the case of B8, the “Activity of mutant relative to wild-type Gaussia luciferase without the signal peptide” value stood at 0.825 in experiment [1], 0.473 in experiment [2] and 0.991 in experiment [3].

B9: P84A E102A S103I E110P D123N: Gaussia luciferase mutant (protein)
chain: B1 chain with L53P, P84A, E102A, S103I, E110P, D123N
modifications: SIGNAL (1)..(17)
notes: Gaussia luciferase mutant
For B9, the “Activity of mutant relative to wild-type Gaussia luciferase without the signal peptide” value was 1.409 in experiment [1], 1.343 in experiment [2] and 1.802 in experiment [3].

B10: Q152H S170D Q175E A182Y: Gaussia luciferase mutant (protein)
chain: B1 chain with L53P, Q152H, S170D, Q175E, A182Y
modifications: SIGNAL (1)..(17)
notes: Gaussia luciferase mutant
Take B10: the entries for the “Activity of mutant relative to wild-type Gaussia luciferase without the signal peptide” value in experiment [1], in experiment [2] and in experiment [3] were 0.723, 0.615 and 0.583, respectively.

B11: Q152K Q163S T167S S170N G174N K178S A182Y G183A: Gaussia luciferase mutant (protein)
chain: B1 chain with L53P, Q152K, Q163S, T167S, S170N, G174N, K178S, A182Y, G183A
modifications: SIGNAL (1)..(17)
notes: Gaussia luciferase mutant
As to B11, the “Activity of mutant relative to wild-type Gaussia luciferase without the signal peptide” value is recorded as 0.819 in experiment [1], 0.906 in experiment [2] and 1.175 in experiment [3].

B12: E102K S103T A104G E110G V138D: Gaussia luciferase mutant (protein)
chain: B1 chain with L53P, E102K, S103T, A104G, E110G, V138D
modifications: SIGNAL (1)..(17)
notes: Gaussia luciferase mutant
For B12, the “Activity of mutant relative to wild-type Gaussia luciferase without the signal peptide” value in experiment [1] is 0.065; in experiment [2] it was 0.106; in experiment [3], 4.919.

B13: Q152H Q163D T167S S170D G174K Q175E K178S A182Y G183N: Gaussia luciferase mutant (protein)
chain: B1 chain with L53P, Q152H, Q163D, T167S, S170D, G174K, Q175E, K178S, A182Y, G183N
modifications: SIGNAL (1)..(17)
notes: Gaussia luciferase mutant
As to B13, the entries for the “Activity of mutant relative to wild-type Gaussia luciferase without the signal peptide” value in experiment [1], in experiment [2] and in experiment [3] were 0.068, 0.383 and 0.509, respectively.

B14: Q152H Q163T T167G S170N Q175E A182L G183A: Gaussia luciferase mutant (protein)
chain: B1 chain with L53P, Q152H, Q163T, T167G, S170N, Q175E, A182L, G183A
modifications: SIGNAL (1)..(17)
notes: Gaussia luciferase mutant
In the case of B14, the “Activity of mutant relative to wild-type Gaussia luciferase without the signal peptide” value is recorded as 0.087 in experiment [1], 0.177 in experiment [2] and 0.172 in experiment [3].

B15: Q152K Q163S T167G S170V G174K Q175E K180: Gaussia luciferase mutant (protein)
chain: B1 chain with L53P, Q152K, Q163S, T167G, S170V, G174K, Q175E
Consider B15, for which the “Activity of mutant relative to wild-type Gaussia luciferase without the signal peptide” value in experiment [1] is 0.136; in experiment [2] it was 0.011; in experiment [3], 0.512.

B16: P84K E102A: Gaussia luciferase mutant (protein)
chain: B1 chain with L53P, P84K, E102A
modifications: SIGNAL (1)..(17)
notes: Gaussia luciferase mutant
B16: the entries for the “Activity of mutant relative to wild-type Gaussia luciferase without the signal peptide” value in experiment [1], in experiment [2] and in experiment [3] were 0.001, 0.000 and 0.009, respectively.

B17: P84K E102K S103I E110P L124M V138D: Gaussia luciferase mutant (protein)
chain: B1 chain with L53P, P84K, E102K, S103I, E110P, L124M, V138D
modifications: SIGNAL (1)..(17)
notes: Gaussia luciferase mutant
In the case of B17, the “Activity of mutant relative to wild-type Gaussia luciferase without the signal peptide” value was determined as 0.536 in experiment [1], 0.036 in experiment [2] and 3.010 in experiment [3].

B18: Q152K Q163T S170N G174N K178S A182Y G183A: Gaussia luciferase mutant (protein)
chain: B1 chain with L53P, Q152K, Q163T, S170N, G174N, K178S, A182Y, G183A
modifications: SIGNAL (1)..(17)
notes: Gaussia luciferase mutant
B18: the “Activity of mutant relative to wild-type Gaussia luciferase without the signal peptide” value in experiment [1] stood at 0.026; in experiment [2], 0.194; in experiment [3], 0.299.
